Results: patent US20230279089A1

B1: 13Y039-4B06-4334 human variable region on mouse IgG2a LAGA Fc, mouse cKappa (Compound A) (antibody)
heavy: QVQLVQSGAEVKKPGASVKVSCKASGYTFLGYYMSWVRQAPGQGLEWMGWINPLSGETNYAQKFQGRVTMTRDTSISTAYMELSRLRSDDTAVYYCARDTGELDGMNWYFDLWGRGTLVTVSSAKTTAPSVYPLAPVCGDTTGSSVTLGCLVKGYFPEPVTLTWNSGSLSSGVHTFPAVLQSDLYTLSSSVTVTSSTWPSQSITCNVAHPASSTKVDKKIEPRGPTIKPCPPCKCPAPNLAGAPSVFIFPPKIKDVLMISLSPIVTCVVVDVSEDDPDVQISWFVNNVEVHTAQTQTHREDYNSTLRVVSALPIQHQDWMSGKEFKCKVNNKDLPAPIERTISKPKGSVRAPQVYVLPPPEEEMTKKQVTLTCMVTDFMPEDIYVEWTNNGKTELNYKNTEPVLDSDGSYFMYSKLRVEKKNWVERNSYSCSVVHEGLHNHHTTKSFSRTPGK
light: EIVLTQSPATLSLSPGERATLSCRASQSVSSYLAWYQQKPGQAPRLLIYDASNRATGIPARFSGSGSGTDFTLTISSLEPEDFAVYYCQQSDSWPPTFGGGTKVEIKRADAAPTVSIFPPSSEQLTSGGASVVCFLNNFYPKDINVKWKIDGSERQNGVLNSWTDQDSKDSTYSMSSTLTLTKDEYERHNSYTCEATHKTSTSPIVKSFNRNEC
B2: 13Y039-4B06-4334 human variable region on rat IgG2b LAGA Fc and rat Kappa (Compound C) (antibody)
heavy: QVQLVQSGAEVKKPGASVKVSCKASGYTFLGYYMSWVRQAPGQGLEWMGWINPLSGETNYAQKFQGRVTMTRDTSISTAYMELSRLRSDDTAVYYCARDTGELDGMNWYFDLWGRGTLVTVSSAQTTAPSVYPLAPGCGDTTSSTVTLGCLVKGYFPEPVTVTWNSGALSSDVHTFPAVLQSGLYTLTSSVTSSTWPSQTVTCNVAHPASSTKVDKKVERRNGGIGHKCPTCPTCHKCPVPELAGAPSVFIFPPKPKDILLISQNAKVTCVVVDVSEEEPDVQFSWFVNNVEVHTAQTQPREEQYNSTFRVVSALPIQHQDWMSGKEFKCKVNNKALPSPIEKTISKPKGLVRKPQVYVMGPPTEQLTEQTVSLTCLTSGFLPNDIGVEWTSNGHIEKNYKNTEPVMDSDGSFFMYSKLNVERSRWDSRAPFVCSVVHEGLHNHHVEKSISRPPGK
light: EIVLTQSPATLSLSPGERATLSCRASQSVSSYLAWYQQKPGQAPRLLIYDASNRATGIPARFSGSGSGTDFTLTISSLEPEDFAVYYCQQSDSWPPTFGGGTKVEIKRADAAPTVSIFPPSTEQLATGGASVVCLMNNFYPRDISVKWKIDGTERRDGVLDSVTDQDSKDSTYSMSSTLSLTKADYESHNLYTCEVVHKTSSSPVVKSFNRNEC

Experiments:
Experiment in all cases: cell-based or functional assay
[1] = target: BMP1/TLL activity in human serum
[2] = target: BMP1/TLL activity in mouse plasma
[3] = target: endogenous BMP1 of human primary cardiac fibroblasts (human), P13497
endogenous BMP1 of human primary cardiac fibroblasts (human), P13497, sequence (P13497 121-986): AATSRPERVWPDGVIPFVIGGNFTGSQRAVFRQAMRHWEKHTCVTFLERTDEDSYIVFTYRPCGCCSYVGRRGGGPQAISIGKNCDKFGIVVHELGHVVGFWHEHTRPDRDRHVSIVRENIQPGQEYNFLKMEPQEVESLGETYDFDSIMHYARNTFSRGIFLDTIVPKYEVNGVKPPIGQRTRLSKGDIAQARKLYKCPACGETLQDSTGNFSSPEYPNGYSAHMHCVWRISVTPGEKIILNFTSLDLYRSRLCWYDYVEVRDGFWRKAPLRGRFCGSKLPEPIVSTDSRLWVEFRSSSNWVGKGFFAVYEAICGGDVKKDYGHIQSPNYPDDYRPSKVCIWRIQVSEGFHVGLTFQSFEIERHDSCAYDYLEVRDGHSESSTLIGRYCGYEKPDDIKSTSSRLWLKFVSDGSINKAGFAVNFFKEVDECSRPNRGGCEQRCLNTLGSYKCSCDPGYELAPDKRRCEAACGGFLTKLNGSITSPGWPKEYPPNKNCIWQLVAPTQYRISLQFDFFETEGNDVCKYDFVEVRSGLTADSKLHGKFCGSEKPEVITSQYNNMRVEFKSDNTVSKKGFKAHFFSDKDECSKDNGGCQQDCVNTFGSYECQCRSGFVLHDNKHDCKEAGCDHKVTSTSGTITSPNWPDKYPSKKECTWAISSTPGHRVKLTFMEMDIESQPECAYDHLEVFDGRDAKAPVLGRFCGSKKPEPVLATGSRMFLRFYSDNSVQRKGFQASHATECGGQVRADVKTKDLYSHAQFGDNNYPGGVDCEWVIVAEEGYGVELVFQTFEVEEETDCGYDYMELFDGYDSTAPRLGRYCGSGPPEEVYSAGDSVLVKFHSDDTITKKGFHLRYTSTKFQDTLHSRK

[4] = target: BMP1/TLL activity in rat plasma

Row | Binder | pIC50, FRET enzyme activity, Human serum (n = 1) [1] | pIC50, FRET enzyme activity, Mouse plasma (n = 1) [2] | pIC50, scar-in-a-jar (SIJ) assay [3] | pIC50, FRET enzyme activity, Rat plasma (n = 2) [4]
1 | B1 | 10.1 | 7.5 | 9.8 | –
2 | B2 | 8.7 | – | – | 9.1
